We go through two molecules from patent US11957698B2, “Synergistic combination of thermolysin and an antibacterial agent to reduce or eliminate bacterial biofilms from surfaces” (SMITH & NEPHEW, INC., priority 2017, dated 2024).

What all share (type): cell-based
One test deals with P. aeruginosa ATCC 27312. The test is described as follows: Minimum inhibitory concentration (MIC) in bacteria suspension. The following applies: for MIC values: thermolysin, where present, kept constant at 50 μg/mL. Here is the method: (§1) The concentration of thermolysin in the MIC experiments was kept constant at 50 μg/mL.
Another test has as its system S. aureus ATCC 29213. Described as above. The following applies: for MIC values: thermolysin, where present, kept constant at 50 μg/mL. Here is the method:
as §1

Test [1] concerns P. aeruginosa ATCC 15442 bacterial biofilm. The test is described as follows: In-vitro gram-negative bacterial biofilm study, 96 well plate, crystal violet staining. The settings on record: 18 hours at 37° C., FIG. 2. Here is the method: An in-vitro assay was performed to determine the bacterial biofilm reduction capabilities of thermolysin and collagenase on gram-negative bacterial biofilms. In this assay P. aeruginosa ATCC 15442 was suspended in a growth media of 10% tryptic soy broth in PBS supplemented with 0.45% glucose (TSBG). The suspension was transferred to the wells of sterile 96 well plates and incubated for 18 hours at 37° C., then the media was changed with fresh media and incubated an additional 8 hours at 37° C. After formation of the bacterial biofilm, the growth media was replaced with solutions of thermolysin dissolved in TSBG growth media at various concentrations in some wells and replaced with solutions of collagenase dissolved in growth media at the same concentrations in other wells (enzyme concentrations were 0.00001 mg/mL, 0.0001 mg/mL, 0.001 mg/mL, 0.01 mg/mL, 0.1 mg/mL, 1.0 mg/mL, and 10 mg/mL). After 18 hours at 37° C., the remaining attached bacteria were quantified by removing the enzyme solutions (enzyme+TSBG growth media) and washing the plate thoroughly followed by crystal violet staining and recording the absorbance at 570 nm. A growth media control without enzyme was also tested. […] A decreased absorbance compared to the Control indicates a reduction of attached bacteria meaning a reduction of the bacterial biofilm occurred.

Test [2] has as its system S. aureus ATCC 6538 bacterial biofilm. The test is described as follows: In-vitro gram-positive bacterial biofilm study, 96 well plate, crystal violet staining. The settings on record: concentrations of 0.00001 mg/mL-10 mg/mL, 16 hours, FIG. 1. Here is the method:
An in-vitro assay was performed to determine the bacterial biofilm reduction capabilities of thermolysin and collagenase on gram-positive bacterial biofilms. In this assay, S. aureus ATCC 6538 was suspended in a growth media of tryptic soy broth supplemented with 0.25% glucose for optimal bacterial biofilm formation. The suspension was transferred to the wells of sterile 96 well plates and incubated for 22 hours at 37° C. with one change of media. After formation of the bacterial biofilm, the growth media was replaced with solutions of thermolysin dissolved in growth media at various concentrations in some wells and replaced with solutions of collagenase dissolved in growth media at the same concentrations in other wells (enzyme concentrations were 0.000001 mg/mL, 0.00001 mg/mL, 0.0001 mg/mL, 0.001 mg/mL, 0.01 mg/mL, 0.1 mg/mL, 1.0 mg/mL, and 10 mg/mL). After 16 hours, the remaining attached bacteria were quantified by aspirating the enzyme solutions (enzyme+growth media) and washing the plate thoroughly followed by crystal violet staining and recording the absorbance at 570 nm. A growth media control without enzyme was also tested. The crystal violet binds to negative charges on the remaining attached bacteria and the EPS. A decreased absorbance compared to the Control indicates a reduction of attached bacteria meaning a reduction of the bacterial biofilm occurred.

With gentamicin sulfate, the MIC values turned out to be 50 µg/mL against P. aeruginosa ATCC 27312 (Rep 1), 50 µg/mL with P. aeruginosa ATCC 27312 (Rep 2), 1.6 µg/mL in the test with S. aureus ATCC 29213 (Rep 1) and 1.6 µg/mL in the test on S. aureus ATCC 29213 (Rep 2).

B1: thermolysin (protein, UniProt P00800 233-548, looked up)
Thermolysin: ITGTSTVGVGRGVLGDQKNINTTYSTYYYLQDNTRGNGIFTYDAKYRTTLPGSLWADADNQFFASYDAPAVDAHYYAGVTYDYYKNVHNRLSYDGNNAAIRSSVHYSQGYNNAFWNGSQMVYGDGDGQTFIPLSGGIDVVAHELTHAVTDYTAGLIYQNESGAINEAISDIFGTLVEFYANKNPDWEIGEDVYTPGISGDSLRSMSDPAKYGDPDHYSKRYTGTQDNGGVHINSGIINKAAYLISQGGTHYGVSVVGIGRDKLGKIFYRALTQYLTPTSNFSQLRAAAVQSATDLYGSTSQEVASVKQAFDAVGVK
For B1, the figures for the “effect in reducing the bacterial biofilm (crystal violet absorbance at 570 nm vs growth media control)” value in test [1] (concentrations of 0.00001 mg/mL-0.01 mg/mL), in test [1] (concentrations of 0.1 mg/mL-10 mg/mL) and in test [2] were “little effect”, “no effect” and “had an effect in reducing the bacterial biofilm”, respectively. In addition, the “effect of the addition of thermolysin on the MIC of gentamicin sulfate” value in the test on P. aeruginosa ATCC 27312 (thermolysin 50 μg/mL) and in the test on S. aureus ATCC 29213 (thermolysin 50 μg/mL) was “did not affect the MIC” in each case.
